Measurements taken from patent publication US20260209386A1 (MYTHIC THERAPEUTICS, published 2026).

T1: Human PTK7 Protein, His Tag, Acro Biosystems (human, UniProt Q13308 31-704)
T1 construct: Bought recombinant protein; also called CCK4; not shown: His tag
T1 sequence: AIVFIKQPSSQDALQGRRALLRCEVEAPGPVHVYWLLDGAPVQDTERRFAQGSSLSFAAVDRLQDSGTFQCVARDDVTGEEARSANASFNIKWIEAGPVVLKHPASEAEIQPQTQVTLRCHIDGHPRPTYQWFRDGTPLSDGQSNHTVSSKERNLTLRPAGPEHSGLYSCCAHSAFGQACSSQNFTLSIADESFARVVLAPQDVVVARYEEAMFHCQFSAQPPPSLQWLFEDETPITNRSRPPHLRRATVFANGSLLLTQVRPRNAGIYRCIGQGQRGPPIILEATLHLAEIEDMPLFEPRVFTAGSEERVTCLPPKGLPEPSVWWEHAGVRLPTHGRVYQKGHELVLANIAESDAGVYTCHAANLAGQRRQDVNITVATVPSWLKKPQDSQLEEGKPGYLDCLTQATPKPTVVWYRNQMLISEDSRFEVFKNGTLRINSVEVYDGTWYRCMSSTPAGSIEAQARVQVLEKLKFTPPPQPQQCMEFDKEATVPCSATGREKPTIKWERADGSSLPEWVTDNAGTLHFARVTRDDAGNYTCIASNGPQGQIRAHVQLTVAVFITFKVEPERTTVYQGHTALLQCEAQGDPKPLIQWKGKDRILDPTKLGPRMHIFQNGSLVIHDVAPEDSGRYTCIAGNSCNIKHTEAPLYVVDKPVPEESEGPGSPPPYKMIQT

B1: MYT11122 (antibody, V domains shown)
VH: EVQLVESGGGLVQPGGSLRLSCTASGFSLSTYAMSWVRQAPGKGLEWVGMIYINDNTYYHSWAKGRFTISRDTSKNTVYLQMNSLRAEDTAVYFCARDIGISYYIGVSLWGQGTLVTVSS
VL: EIVMTQSPSTLSASVGDRVIITCQASQSIGTRLSWYQQKPGKAPKLLIYGASKLATGVPSRFSGSGSGAEFTLTISSLQPDDFATYYCLGEYSYTTTDGIAFGQGTKLTVL
notes: MYT9412 HC variant
B2: MYT11139 (antibody, V domains shown)
VH: EVQLVESGGGLVQPGGSLRLSCTASGFSLSTYAMSWVRQAPGKGLEWVGMIYINDNTYYASWAKGRFTISRDTSKNTVYLQMNSLRAEDTAVYFCARDIGISYYIGHSLWGQGTLVTVSS
VL: EIVMTQSPSTLSASVGDRVIITCQASQSIGTRLSWYQQKPGKAPKLLIYGASKLATGVPSRFSGSGSGAEFTLTISSLQPDDFATYYCLGEYSYTTTDGIAFGQGTKLTVL
notes: MYT9412 HC variant
B3: MYT11149 (antibody, V domains shown)
VH: EVQLVESGGGLVQPGGSLRLSCTASGFSLSTYAMSWVRQAPGKGLEWVGMIYINDNTYYASWAKGRFTISRDTSKNTVYLQMNSLRAEDTAVYFCARDIGISYYIGVSLWGQGTLVTVSS
VL: EIVMTQSPSTLSASVGDRVIITCQASQHIGTRLSWYQQKPGKAPKLLIYGASKLATGVPSRFSGSGSGAEFTLTISSLQPDDFATYYCLGEYSYTTTDGIAFGQGTKLTVL
notes: MYT9412 LC variant
B4: MYT11156 (antibody, V domains shown)
VH: EVQLVESGGGLVQPGGSLRLSCTASGFSLSTYAMSWVRQAPGKGLEWVGMIYINDNTYYASWAKGRFTISRDTSKNTVYLQMNSLRAEDTAVYFCARDIGISYYIGVSLWGQGTLVTVSS
VL: EIVMTQSPSTLSASVGDRVIITCQASQSIGTRLSWYQQKPGKAPKLLIYHASKLATGVPSRFSGSGSGAEFTLTISSLQPDDFATYYCLGEYSYTTTDGIAFGQGTKLTVL
notes: MYT9412 LC variant
B5: MYT11145 (antibody, V domains shown)
VH: EVQLVESGGGLVQPGGSLRLSCTASGFSLSTYAMSWVRQAPGKGLEWVGMIYINDNTYYASWAKGRFTISRDTSKNTVYLQMNSLRAEDTAVYFCARDIGISYYIGVSLWGQGTLVTVSS
VL: EIVMTQSPSTLSASVGDRVIITCHASQSIGTRLSWYQQKPGKAPKLLIYGASKLATGVPSRFSGSGSGAEFTLTISSLQPDDFATYYCLGEYSYTTTDGIAFGQGTKLTVL
notes: MYT9412 LC variant
B6: MYT11155 (antibody, V domains shown)
VH: EVQLVESGGGLVQPGGSLRLSCTASGFSLSTYAMSWVRQAPGKGLEWVGMIYINDNTYYASWAKGRFTISRDTSKNTVYLQMNSLRAEDTAVYFCARDIGISYYIGVSLWGQGTLVTVSS
VL: EIVMTQSPSTLSASVGDRVIITCQASQSIGTRLHWYQQKPGKAPKLLIYGASKLATGVPSRFSGSGSGAEFTLTISSLQPDDFATYYCLGEYSYTTTDGIAFGQGTKLTVL
notes: MYT9412 LC variant
B7: MYT11125 (antibody, V domains shown)
VH: EVQLVESGGGLVQPGGSLRLSCTASGFSLSTYAMSWVRQAPGKGLEWVGMIYINDNTYYASWHKGRFTISRDTSKNTVYLQMNSLRAEDTAVYFCARDIGISYYIGVSLWGQGTLVTVSS
VL: EIVMTQSPSTLSASVGDRVIITCQASQSIGTRLSWYQQKPGKAPKLLIYGASKLATGVPSRFSGSGSGAEFTLTISSLQPDDFATYYCLGEYSYTTTDGIAFGQGTKLTVL
notes: MYT9412 HC variant
B8: MYT11148 (antibody, V domains shown)
VH: EVQLVESGGGLVQPGGSLRLSCTASGFSLSTYAMSWVRQAPGKGLEWVGMIYINDNTYYASWAKGRFTISRDTSKNTVYLQMNSLRAEDTAVYFCARDIGISYYIGVSLWGQGTLVTVSS
VL: EIVMTQSPSTLSASVGDRVIITCQASHSIGTRLSWYQQKPGKAPKLLIYGASKLATGVPSRFSGSGSGAEFTLTISSLQPDDFATYYCLGEYSYTTTDGIAFGQGTKLTVL
notes: MYT9412 LC variant
B9: MYT11138 (antibody, V domains shown)
VH: EVQLVESGGGLVQPGGSLRLSCTASGFSLSTYAMSWVRQAPGKGLEWVGMIYINDNTYYASWAKGRFTISRDTSKNTVYLQMNSLRAEDTAVYFCARDIGISYYIHVSLWGQGTLVTVSS
VL: EIVMTQSPSTLSASVGDRVIITCQASQSIGTRLSWYQQKPGKAPKLLIYGASKLATGVPSRFSGSGSGAEFTLTISSLQPDDFATYYCLGEYSYTTTDGIAFGQGTKLTVL
notes: MYT9412 HC variant
B10: MYT11147 (antibody, V domains shown)
VH: EVQLVESGGGLVQPGGSLRLSCTASGFSLSTYAMSWVRQAPGKGLEWVGMIYINDNTYYASWAKGRFTISRDTSKNTVYLQMNSLRAEDTAVYFCARDIGISYYIGVSLWGQGTLVTVSS
VL: EIVMTQSPSTLSASVGDRVIITCQAHQSIGTRLSWYQQKPGKAPKLLIYGASKLATGVPSRFSGSGSGAEFTLTISSLQPDDFATYYCLGEYSYTTTDGIAFGQGTKLTVL
notes: MYT9412 LC variant
B11: MYT11126 (antibody, V domains shown)
VH: EVQLVESGGGLVQPGGSLRLSCTASGFSLSTYAMSWVRQAPGKGLEWVGMIYINDNTYYASWAHGRFTISRDTSKNTVYLQMNSLRAEDTAVYFCARDIGISYYIGVSLWGQGTLVTVSS
VL: EIVMTQSPSTLSASVGDRVIITCQASQSIGTRLSWYQQKPGKAPKLLIYGASKLATGVPSRFSGSGSGAEFTLTISSLQPDDFATYYCLGEYSYTTTDGIAFGQGTKLTVL
notes: MYT9412 HC variant
B12: MYT11135 (antibody, V domains shown)
VH: EVQLVESGGGLVQPGGSLRLSCTASGFSLSTYAMSWVRQAPGKGLEWVGMIYINDNTYYASWAKGRFTISRDTSKNTVYLQMNSLRAEDTAVYFCARDIGISHYIGVSLWGQGTLVTVSS
VL: EIVMTQSPSTLSASVGDRVIITCQASQSIGTRLSWYQQKPGKAPKLLIYGASKLATGVPSRFSGSGSGAEFTLTISSLQPDDFATYYCLGEYSYTTTDGIAFGQGTKLTVL
notes: MYT9412 HC variant
B13: MYT11123 (antibody, V domains shown)
VH: EVQLVESGGGLVQPGGSLRLSCTASGFSLSTYAMSWVRQAPGKGLEWVGMIYINDNTYYAHWAKGRFTISRDTSKNTVYLQMNSLRAEDTAVYFCARDIGISYYIGVSLWGQGTLVTVSS
VL: EIVMTQSPSTLSASVGDRVIITCQASQSIGTRLSWYQQKPGKAPKLLIYGASKLATGVPSRFSGSGSGAEFTLTISSLQPDDFATYYCLGEYSYTTTDGIAFGQGTKLTVL
notes: MYT9412 HC variant
B14: MYT11141 (antibody, V domains shown)
VH: EVQLVESGGGLVQPGGSLRLSCTASGFSLSTYAMSWVRQAPGKGLEWVGMIYINDNTYYASWAKGRFTISRDTSKNTVYLQMNSLRAEDTAVYFCARDIGISYYIGVSHWGQGTLVTVSS
VL: EIVMTQSPSTLSASVGDRVIITCQASQSIGTRLSWYQQKPGKAPKLLIYGASKLATGVPSRFSGSGSGAEFTLTISSLQPDDFATYYCLGEYSYTTTDGIAFGQGTKLTVL
notes: MYT9412 HC variant
B15: MYT11127 (antibody, V domains shown)
VH: EVQLVESGGGLVQPGGSLRLSCTASGFSLSTYAMSWVRQAPGKGLEWVGMIYINDNTYYASWAKHRFTISRDTSKNTVYLQMNSLRAEDTAVYFCARDIGISYYIGVSLWGQGTLVTVSS
VL: EIVMTQSPSTLSASVGDRVIITCQASQSIGTRLSWYQQKPGKAPKLLIYGASKLATGVPSRFSGSGSGAEFTLTISSLQPDDFATYYCLGEYSYTTTDGIAFGQGTKLTVL
notes: MYT9412 HC variant
B16: MYT11129 (antibody, V domains shown)
VH: EVQLVESGGGLVQPGGSLRLSCTASGFSLSTYAMSWVRQAPGKGLEWVGMIYINDNTYYASWAKGRFTISRDTSKNTVYLQMNSLRAEDTAVYFCAHDIGISYYIGVSLWGQGTLVTVSS
VL: EIVMTQSPSTLSASVGDRVIITCQASQSIGTRLSWYQQKPGKAPKLLIYGASKLATGVPSRFSGSGSGAEFTLTISSLQPDDFATYYCLGEYSYTTTDGIAFGQGTKLTVL
notes: MYT9412 HC variant
B17: MYT11140 (antibody, V domains shown)
VH: EVQLVESGGGLVQPGGSLRLSCTASGFSLSTYAMSWVRQAPGKGLEWVGMIYINDNTYYASWAKGRFTISRDTSKNTVYLQMNSLRAEDTAVYFCARDIGISYYIGVHLWGQGTLVTVSS
VL: EIVMTQSPSTLSASVGDRVIITCQASQSIGTRLSWYQQKPGKAPKLLIYGASKLATGVPSRFSGSGSGAEFTLTISSLQPDDFATYYCLGEYSYTTTDGIAFGQGTKLTVL
notes: MYT9412 HC variant
B18: MYT11154 (antibody, V domains shown)
VH: EVQLVESGGGLVQPGGSLRLSCTASGFSLSTYAMSWVRQAPGKGLEWVGMIYINDNTYYASWAKGRFTISRDTSKNTVYLQMNSLRAEDTAVYFCARDIGISYYIGVSLWGQGTLVTVSS
VL: EIVMTQSPSTLSASVGDRVIITCQASQSIGTRHSWYQQKPGKAPKLLIYGASKLATGVPSRFSGSGSGAEFTLTISSLQPDDFATYYCLGEYSYTTTDGIAFGQGTKLTVL
notes: MYT9412 LC variant
B19: MYT11124 (antibody, V domains shown)
VH: EVQLVESGGGLVQPGGSLRLSCTASGFSLSTYAMSWVRQAPGKGLEWVGMIYINDNTYYASHAKGRFTISRDTSKNTVYLQMNSLRAEDTAVYFCARDIGISYYIGVSLWGQGTLVTVSS
VL: EIVMTQSPSTLSASVGDRVIITCQASQSIGTRLSWYQQKPGKAPKLLIYGASKLATGVPSRFSGSGSGAEFTLTISSLQPDDFATYYCLGEYSYTTTDGIAFGQGTKLTVL
notes: MYT9412 HC variant

biological target: T1, Human PTK7 Protein, His Tag, Acro …; experiment: BLI, anti-human Fc capture, 50 nM PTK7; 2 = substantially similar binding relative to parent

Binding result, binds:
B1, B2, B3, B4, B5, B6, B7, B8, B9, B10, B11, B12, B13, B14, B15, B16, B17, B18, B19
